Consider 1 protein from doi:10.1101/841569 (bioRxiv, 2019).

This series deals with the molecule itself. Kind of series: crystal structure.

B1: Mycobacterium tuberculosis MenD (2-succinyl-5-enolpyruvyl-6-hydroxy-3-cyclohexadiene-1-carboxylate synthase, SEPHCHC synthase) (enzyme)
chain: MNPSTTQARVVVDELIRGGVRDVVLCPGSRNAPLAFALQDADRSGRIRLHVRIDERTAGYLAIGLAIGAGAPVCVAMTSGTAVANLGPAVVEANYARVPLIVLSANRPYELLGTGANQTMEQLGYFGTQVRASISLGLAEDAPERTSALNATWRSATCRVLAAATGARTANAGPVHFDIPLREPLVPDPEPLGAVTPPGRPAGKPWTYTPPVTFDQPLDIDLSVDTVVISGHGAGVHPNLAALPTVAEPTAPRSGDNPLHPLALPLLRPQQVIMLGRPTLHRPVSVLLADAEVPVFALTTGPRWPDVSGNSQATGTRAVTTGAPRPAWLDRCAAMNRHAIAAVREQLAAHPLTTGLHVAAAVSHALRPGDQLVLGASNPVRDVALAGLDTRGIRVRSNRGVAGIDGTVSTAIGAALAYEGAHERTGSPDSPPRTIALIGDLTFVHDSSGLLIGPTEPIPRSLTIVVSNDNGGGIFELLEQGDPRFSDVSSRIFGTPHDVDVGALCRAYHVESRQIEVDELGPTLDQPGAGMRVLEVKADRSSLRQLHAAIKAAL
As to B1, the stoichiometry N – broadly, the number of molecules, sites or subunits per partner or assembly – came out at 4.
